Reference: the NTF2 design screens of Basanta et al. (2020)

Test: protease stability score; higher = more stable; yeast display proteolysis, trypsin and chymotrypsin;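 further: relative to predicted unfolded state with 0 unfolded-like and 1 meaning tenfold more protease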

Row | Sequence | protease stability score
1 | DEDKEILKRAFEIYIQTVLTGDEDLFHEMADPHTRLETENETFIGREEVRRWMSEWRVDHIILKDFTAVNGRLVLRGEMDGTINGKRTHVTVTIIIHKVDGRWLLKSMSVE | 1.36
2 | DEDKELAIRMIRLLMHALHTGDEDLLDELLDPNTKVDVDGQDLVGREQFLRDLRHIRIEIKDSHIHDVRVQGDKVRSHSYINGRREYDGVRLETEFRVLFIIRKVNGKWIFKSIHSL | 1.3
3 | DEDKEMIRHAVEILLKTLYTGDWETLERLLDPNARINVDGVDIHGRDVVKHWLDRADHVSIHDSHVERFRFVNGRLTIHIKEHSRFEIGDKTMRVELKRNLFILKIDGRWILESERIV | 1.01
4 | DEDKENAEEAIRRLMEMILTGDEDQIRHMIDPHVRVIINGRDHHGWEELLRFWKEMRIHDVKVHDIKIINGRVNSDTKIVTEIGDFRIELEAHFIFHKFDGRWRVDSVDLR | 1.18
5 | DEDKERADEMLEYILHYILTGDEDSLRELFDPHARLHVDGRDIIGWDKFNRKLIEIRQRTRIQSEHIHIQGDKLHVDGTLRINIHYNGQHLHIDLRSIHITVKINGRWVFKFMEIR | 0.829
6 | DEDKESAEEAFKVWVRDLMTGDEDSLRRLVDPRTLVEVGDKHFHGRDMFVHLEKLQRERADHIRIELHDFDIQGEKIHLDVRVILEQGEKRVFLRTHYLILKVNGRWIVKSLWIQ | 0.921
7 | DEDKESAERAFRILVHLWETGDEHKLERMHDPNTRYHQGDKDIHGMEKILERLSHIRIKDVKLRDIKYQGEKLEVDGEIEIEVDGRNLLLRTILFFDKVDGRWVIRSIEVR | 1.52
8 | DEDKESAKTLVELLVEVLSTGDWKELLHLMDPNTRININGREVHGWHSMHELLRRMIEELRIKRLHLTEVRAQGDKVHVSSKMRVNIDGQDRLTQTHIDVHVFDGVIKTWTMHIE | 1.01
9 | DEDKESLTRFWRMWVELNQTGDEDSLLKMFDPHVKIDINGRDLHGRELFAEEHKKFREEMGIDHFEFEIHRFEVQGDKANLDAKVTIRIGDKFHQLDLHIILHKVNGRWVLHSVKIR | 1.22
10 | DEDKESTDKMLELMLHLIKTGDFEIFEHLFDPNVRVNVGDKERVGWKEALKFRRQWRLHHMEVRDVHKVGDKMHVDSRIDGSVNGVREEDRTEIILVKYDGRWFITSIEFH | 0.99
11 | DEDKEWAHRILEHFLDNLRTGNEERLEELADPNTRVVIDGQEEHGMHVFNTLHKELRIDRIHLTSWDIQGDKLHLDVRVDGTFNGQREVTRVHIYFRVVNGRVKDIQIHVI | 1.8
12 | DEDKEYLREVLEVLKHMWDTGDERELSKLADPHTRVEINGVKFIGMEEFVRIMQELTKRADHMENRVERNIYQGDYVLVRTRLILKIGEKDFEREVDIFVRKFNGRWLIEELKFH | 1.37
13 | DEDKHLARHLVDLIWESLKTGNEKLSKSLADPNVRIIVGDKEVVGRERVEKWLEKVMHEIRVKDLDERHVDVQGDKVNVYVDIHGNFDGKDDTTHFYFDIKKVNGVWLIERYEVH | 0.958
14 | DEDKHLIETFLERLERILKTGDEEDERRLADPHAKLVQGDKILHGREELIRWLRELGAKHVRLHISHLDVQGDKVETDLRLIIIQGDKEYEKDMKVHVLKVDGRWLLKSIIVE | 2.08
15 | DEDKHLSDYAMELELHAIKTGDEDLWRELIDPNARLIVGDKTFHGWEHLVTFMVSLGVKHVKLKDLKIQGDKMHSKLEIEFDGRTRTYHVVSLKVDGRWVIESVEVR | 1.06
16 | DEDKHLSQLAIELLHRFLWTGDEHDLEHLMDPNAKLEQGDKTLHGRELVLEFFDHLVEEAGITKVDHKLRRIETYGNKVNIHGDLHVNGRTIRIEIIAVKINGKWVVRSVRIK | 1.21
17 | DEDKHQLDEATKVWLELFLTGNEEELLKLADPDVRIEVDGKHFHGREVMLKLMQEWKHRLGINVDELKRTEIEVIDGKAHVHLDGELYIDGKTFRLDIEVVYEKIDGRWRLKKVRFDIR | 2.15
18 | DEDKHVVEEFEKLMSHSMATGDEESLLRLADPNTRIVIGDKELHGMDLYLRWHVQHWRELGVDRVKVEVRVRDVRVVDGKVHVIGELIFRFDGRTQSHDVELEIVKINGKWVLKQINLK | 2.25
19 | DEDKKELEEMFRILKEMWETGDWREESRMVDPHARVDINGVELHGREFIMEHIHRVKNMRFEIKRFDVVNGVLEIVGELHQGDKKHRVTIHALKFDGKWLQETVIIG | 1.6
20 | DEDKKFIDEYLKLLEDSIETGDWRNHNELLDPNALVLVNGVELHGRELAVTHTEKFLKHMGVKHYRLHEVDIQGEKVHIHSKAHVDGRTFDLEFISHKIDGRWLMSEVRIREN | 1.24
21 | DEDKKHALEMAEMLFELIWTGDEHMLKELMDPNTRLFFNGRETHGWEFLSRELIHLRHRSDFRIRDVRIIGDYLHVDGEFHTILNINGVDIELHLHMEIVLFKIDGRWVVHEIRFL | 1.72
22 | DEDKKITDRAFEIFIHNLYTGNEEDLHELADPNVRHIYGDWNVHGMELMTHVLWEIRMKRLNEHDLEIHIINGRAIIDLDGELDGEVNGRRHHRRIIIHVFALKIDGRWHLESMEVKTK | 1.35
23 | DEDKKIWKHWLEIFVRWFLTGDFDKLRENADPNARSDINGKELHGMETFVEAMRELGFKHVEIHDVHIQGNKVHLDTRVLFDGQHHTTHLHVHIVNGRLKEISIEIR | 1.26
24 | DEDKKLAHESFRIWLHWMRTGDEKMMEELMDPNTRTYFEGHSDHGRSAARQYANRIDHIHHIHVHHIEIQGDKVEVDGRLDGVVNGKRIDVRIVIESVKVNGKWIVRSIEEH | 1.41
25 | DEDKKLHHEALEVWERVLKTGNFRIESEYLDPHARNEFEGRHFHGRELFHELNEELGVENVRFHHFHVHDLETFNGRILMRFHMEGEINGQQFNVEVKVDTEKYDGVWFTRSFVER | 0.38

Row | Sequence | protease stability score
26 | DEDKKLVEWVLRMLFEALRTGDEHALNNLFDPNVRIEQGDKRFHGREELIRLFHILGIDHIIIEDKDIKVFDGQLEIDGREVLIFDGRRFEIDMKIYIHKINGRWHVKSVHKD | 1.78
27 | DEDKKRSEEISKTMIEAMETGDEDRLHELLDPHVRMEIRIGDKHIIDHGREMMLHWSRRYPNLQFRLSHIDVQGDKIHAHWLVHIGDKTRDVELELQVVDGQIHSIHLRIR | 1.52
28 | DEDKKVAELVMRLWEHTQRTGDPDMMSKLADPNVRVDVNGREIHGRERLFEHLEHMRINHFRLRDREIHVQGDYVKIRIEGELDGDINGREDRHRIELIIVVEKINGRWFMTEVIVIVK | 1.37
29 | DEDKKVFETALRILIHYERTGDWELLHRLADPNTRMIQGDKLHIGREKAKEFINKWTEEMRPTDVRIDHVEIINGRIHIEGTTHGDVNGQRHDLEVHILSIKVDGRWRLKEFELK | 1.2
30 | DEDKKWVDEMIRLLLEYWRTGDEERIRQLADPNVRTHINGKEIHGMEIHLQYLREFMETFGVDHVELRIHHKDIQGDKIHLHVEIIYTVGDKEHRQEVHFRARKINGKWMIEHVEIK | 1.25
31 | DEDKQHAEKVWRLFSKFVNTGDEESLNRLFDPDVKLRVGDKEFHGREEFVKFMSELYRRIDHVHWHFSHIEVVGEYIIIHGHTIFEVGDKKDSRDTRLIMFKVNGRWHIHHIRIE | 2.33
32 | DEDKQWIEEFIELHLRELETGDEQRVDENLDPNVKLRINGKEVHGRERISHLLKELLRKVKNLKVELHDIRVQGDFLEIEGTLRIGDKELDLYVIAHKVNGKWIVKERRIH | 1.23
33 | DEDKRHADRWVDELRRVMLTGDFDTYVEMLDPHVRIEVGDKVIHGREDLIKFMRERLDRLGYERVEIRIEVSDREKQGDKIELHGTLHLFIGDKEHTHKIRIWIRKVNGQWIAESERVQ | 1.71
34 | DEDKTNLDMALRLLKEVTETGDEETLLKMMDPNVRIIINGRDVHGRENAERFATEWSRKVKNATLEVKDFHSQGEKVHLLGHDIFNGREIEFRIIWVKYNGRWFIHEIIFI | 1.3
35 | DEDLEESHYAIEYLIRLFETGDWDTVDRFFDPRTRLRVNGKNHHGREEVTEFVEDILKRYDHKQFTFTHVEFQGEKIILHGKLHLDINGVHFEHDFILIIKKIDGRWYVDEIHIS | 1.39
36 | DEDLEETRKLIELLTRAFFTGDEDEMKNLADPSVRIIINGREVHGMDEWVRLLEEIRLEDVHSNLRDIRYFNGVVEVDGEFRLDGNINGRRFHHVFDLRLYVIKVNGRWRVKSWRNI | 1.83
37 | DEDLERARHAIEELIENWRTGNFREIERLMDPNVRIIIGDKTLHGRESMHRFVEEARLEHFELRHVSIVNGRVHVHGTEDWRIGDKRETREVRIVIHKVDGRWNFEFKIIH | 0.983
38 | DEDLKLMLTLTHLWLHAVATGDEDLQTKLADPDVRFIFNGRIIHGMDEWRRFLKELRIKIEDTDHKDSDLYGEKLHIDGHIVIRIHVGEKNERIDTRVHIHVLVINGKLKSVKIETR | 2.13
39 | DEDLQFLKNFKEEWIKNLRTGDEDAVQKLADPNVRIDIDGKELHGREVMLEMLHQETNELRLKDVKDKHMTVQGDKIHWDGILIITINGKEIRRRVHIFVQKVDGRWVIESEIHR | 0.942
40 | DEDLRMAFEMVRISDHEIDTGDEDSWTKLFDPHVRIRFPGRMLHGREYLHYVLKHARIHYDDSELKDVKFVGNKLLVDVHVRGTFFIDGQNIHTEVKRIHMIEKYNGKWKTTEMEIK | 0.469
41 | DEDLSRNFHQFIEALKQNDTDRMKELIDPNARMRYGDKQLHGRENILNYWKKLNDQARVDLDLKSVRNDENHIRYNYKMRVHVNGRPVEDTATAEIRATNGRIVDIYIDFDPEKLRQIES | 2.16
42 | DEDMDISKHWAELWMKLEKTGDEEELRKLMDPHARIDFNGVDIHGMEFWLELLKREKDKFKNVKITLEEFRIYGDYVHFHVIIHQGDYHLRIEITIIVVNGRHKELIIRIK | -0.059
43 | DEDMELVLKWVHEFAEMFETGNEHELLRMLDPHVRLEYGEKEIHGREDITRFWEEKIRKLGIKHIRVHIRDARIQGEKLHLDTELKLDYNGKTDHERYIIIIIKINGKWSIKSFQVE | 1.55
44 | DEDMKIASHVFHLIMHILHTGDEDSLKELADPDYRWLFNGVSNVGREESVRRLEEIRLEMKDTKTRSAKIYDGRIELHSHVRGNLNVNGVEIEHSVRSRLFVSKVDGKWLVEHIEIG | -0.045
45 | DEDMREAVKIAHRWLQHMTTGDEESIQSLADPHTKILFNGRELHGRHVITHLIREIRIKYTHLEHRDWRVVDGQLHLDFREDLRIEFDGQVRRIEIESHFMIIKINGRWFVHEVHLR | 0.636
46 | DEDNEYVEYMHELIARALITGDFELWLKLMDPNTRMQIDGKEFHGREEFRKRLEHLRIDRVRYNVRHFHIIGDKLHVKSEFEIDGQIDGVDRHFSVEIRVLIWKINGRWILRDETTH | 1.69
47 | DEDNREIKHAIHLLLTAFLTGNEDWLKELADPNVRILFNGRLFHGREHFLKFLLKFLRDYGIDHNHIQHSHLEIQGNFVHTHLHLEIDVNGRRQEFELRVISEKINGRWHLRELEVHIR | 2.43
48 | DEDQEEANHLIDLFIASLNTGDWEIIDHMADPHVKFRSVVNGKREKHIGREEMIRWFEEIEERFGYENFHVRYQRFEVQGEKMNTDITIEWNGRRFRSIILLHVFNGKLKSMEIIDI | 1.25
49 | DEDQEEMYKALNHLLTLLKTGDEHVLKRLIDPHVRVEIDGKDRHGMSFLLEIIKEELIRIDHIKDFRIHHVEMVGDKAENHVKLIGEWNGKEFRLRMHVYSWKFDGKWIMKSIKIE | 1.75
50 | DEDQEIAEHVAELILELLLTGDEEKFLTLLDPNVRIIVGDKELHGREDWMRLFRHMRVRHVELRKIEVQGEKVHVDSRLDVEFNGRRRNINANWIVLKVNGRWTIRSVELE | 2.17
